Laboratory results: patent EP1506971A1 (The Regents of the University of California, dated 2005)

Target: prokineticin receptor(s) of guinea pig ileal membrane / ileal smooth muscle (guinea pig)
Test: cell-based or functional assay

- EC50 of ileal smooth muscle contraction, relative to prokineticin 1 or prokineticin 2: ~8 fold
B1: chimeric prokineticin 21 (exons 1 and 2 of prokineticin 2, exon 3 of prokineticin 1) (ligand)
chain: AVITGACDKDSQCGGGMCCAVSIWVKSIRICTPMGKLGDSCHPLTRKVPFFRKRKHHTCPCLPNLLCSRFPDGRYRCSMDLKNINF
